The text below walks through data of publication PMC4481513, “Structural and Functional Analysis of Human HtrA3 Protease and Its Subdomains” (PLoS ONE, 2015).

*1 amine or outer side, *2 acyl side, *3 side chain or, on linkers, in order; H or OH if unused. The star is where a group is joined. Benzoyl(5-NH,2-NO2) = O=C(c1cc(N[*:1])ccc1[N+](=O)[O-])[*:2]; Mca = COc1ccc2c(CC(=O)*)cc(=O)oc2c1

Series [1] concerns the target β-casein from bovine milk (bovine). In words: SEC; Superose 12 HR 10/30, room temperature, 50 mM Na2HPO4/NaH2PO4 pH 8.0, 250 mM NaCl; single proteins, HtrA3 proteins at 3 mg/ml, 50 μl loaded.
Series [2] concerns the molecule itself. In words: crystal structure; ΔN-HtrA3 S305A, sitting-drop vapor diffusion, 1 M sodium/potassium phosphate buffer pH 5.0, 16°C; three molecules per asymmetric unit; 3.27 Å.
Series [3] has as its target ΔN-HtrA3 (residues 130–453–His6), proteolytically active (human) (UniProt P83110).
In series [4] the target is ΔN-HtrA3-ΔPDZ (residues His6–122–349), proteolytically active (human) (UniProt P83110).
ΔN-HtrA3-ΔPDZ (residues His6–122–349), proteolytically active (human), sequence (P83110 122-349, stated change not applied): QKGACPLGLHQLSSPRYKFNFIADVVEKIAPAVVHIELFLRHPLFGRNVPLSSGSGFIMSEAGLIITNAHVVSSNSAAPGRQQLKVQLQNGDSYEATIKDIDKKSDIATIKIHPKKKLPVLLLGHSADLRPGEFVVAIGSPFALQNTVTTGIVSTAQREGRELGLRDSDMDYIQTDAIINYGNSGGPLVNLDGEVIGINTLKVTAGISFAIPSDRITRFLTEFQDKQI
Series [5] addresses ΔN-HtrA3S (residues 130–357–His6), proteolytically active (human) (UniProt P83110).

“β-casein from bovine milk (natural protein)”: the stoichiometry N – broadly, a count of units in the complex or per binding partner – in series [1] amounted to 3.

B1: ΔN-HtrA3_(S305A) (residues 130–453–His6), proteolytically inactive N-terminally truncated HtrA3L with protease and PDZ domains (domain or fragment, human, UniProt P83110 130-453, looked up)
chain: LHQLSSPRYKFNFIADVVEKIAPAVVHIELFLRHPLFGRNVPLSSGSGFIMSEAGLIITNAHVVSSNSAAPGRQQLKVQLQNGDSYEATIKDIDKKSDIATIKIHPKKKLPVLLLGHSADLRPGEFVVAIGSPFALQNTVTTGIVSTAQREGRELGLRDSDMDYIQTDAIINYGNAGGPLVNLDGEVIGINTLKVTAGISFAIPSDRITRFLTEFQDKQIKDWKKRFIGIRMRTITPSLVDELKASNPDFPEVSSGIYVQEVAPNSPSQRGGIQDGDIIVKVNGRPLVDSSELQEAVLTESPLLLEVRRGNDDLLFSIAPEVVM
notes: human HtrA3 long isoform (HtrA3L), residues 130-453: serine protease domain and PDZ domain, catalytic serine changed to alanine; Chain A of the structure runs to residue 459, that is into the His tag; also called ΔN-HtrA3-His6; pPG1; source: E. coli BL21(DE3) clpP::Cm r, purified (Ni-NTA; before crystallization also Superdex 200 gel filtration); not shown: His6, C-terminal, kept
Consider B1, for which, in series [2], the “stoichiometry N” value was 3.

B2: Fluorescent substrate Ala(Mca)IRRVSYSF–ANB–NH2 (peptide)
peptide: Mca-AIRRVSYSF-{Benzoyl(5-NH,2-NO2)-NH2}
SMILES: CC[C@H](C)[C@H](NC(=O)[C@H](C)NC(=O)Cc1cc(=O)oc2cc(OC)ccc12)C(=O)N[C@@H](CCCNC(=N)N)C(=O)N[C@@H](CCCNC(=N)N)C(=O)N[C@H](C(=O)N[C@@H](CO)C(=O)N[C@@H](Cc1ccc(O)cc1)C(=O)N[C@@H](CO)C(=O)N[C@@H](Cc1ccccc1)C(=O)Nc1ccc([N+](=O)[O-])c(C(N)=O)c1)C(C)C
Regarding B2, the Km [μM] of cleavage of the peptide Ala(Mca)IRRVSYSF-ANB-NH2 (0.02 to 6 μM), 50 nM enzyme, 30°C, Michaelis-Menten fit stood at 0.958 µM in series [3], 0.878 µM in series [4] and 0.74 µM in series [5].
